# Experiments:
# Assay in all cases: SEC
# [1] = target: T18A (collagen XVIII trimerization domain, 18-residue G/S linker, ACE2 18-615) (human) (UniProt P39060)
# [2] = target: T3A (collagen XVIII trimerization domain, 3-residue G/S linker, ACE2 18-615) (human) (UniProt P39060)
# [3] = target: T5A (collagen XVIII trimerization domain, 5-residue G/S linker, ACE2 18-615) (human) (UniProt P39060)
# [4] = target: T1A (collagen XVIII trimerization domain, 1-residue G/S linker, ACE2 18-615) (human) (UniProt P39060)
substance,measurement,setting,value
"T18A (collagen XVIII trimerization domain, 18-residue G/S linker, ACE2 18-615) (from UniProt P39060;Q9BYF1)",stoichiometry N,[1],3
"T3A (collagen XVIII trimerization domain, 3-residue G/S linker, ACE2 18-615) (from UniProt P39060;Q9BYF1)",stoichiometry N,[2],3
"T5A (collagen XVIII trimerization domain, 5-residue G/S linker, ACE2 18-615) (from UniProt P39060;Q9BYF1)",stoichiometry N,[3],3
"T1A (collagen XVIII trimerization domain, 1-residue G/S linker, ACE2 18-615) (from UniProt P39060;Q9BYF1)",stoichiometry N,[4],3

# From article PMC12501226
